The target in test [1] is T1, 重组人CD47-his蛋白 (ACRO biosystems, cat#CD7-H5227) (human, UniProt Q08722 19-139, biotin-labelled in the ELISA assays (site not stated)).
T1 construct: Bought protein; also called 人CD47蛋白; 人CD47-生物素; not shown: his tag
The experiment in a line: SPR (Biacore T200), antibody captured by goat anti-mouse IgG on a CM5 chip, CD47-his as analyte. (Surface plasmon resonance follows binding to a sensor surface in real time, without labels.)

Test [2] deals with T2, 人CD47 (表面过表达人CD47的293F细胞) (human, UniProt Q08722 19-323).
T2 construct: whole, on cells; also called 表面过表达人CD47的稳定细胞系293F
T2 sequence (Q08722 19-323): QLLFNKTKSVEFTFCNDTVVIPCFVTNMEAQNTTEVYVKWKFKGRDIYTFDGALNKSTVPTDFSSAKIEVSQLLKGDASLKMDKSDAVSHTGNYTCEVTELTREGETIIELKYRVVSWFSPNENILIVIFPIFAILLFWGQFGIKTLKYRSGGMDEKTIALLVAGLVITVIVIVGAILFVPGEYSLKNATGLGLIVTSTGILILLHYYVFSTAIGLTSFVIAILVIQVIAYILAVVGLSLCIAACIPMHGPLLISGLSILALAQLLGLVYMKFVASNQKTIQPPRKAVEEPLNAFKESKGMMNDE
The experiment in a line: flow cytometry on 293F cells overexpressing human CD47. (Flow cytometry measures light scatter and fluorescence of single cells or particles in a stream.)

T1 sequence (Q08722 19-139 limits assumed): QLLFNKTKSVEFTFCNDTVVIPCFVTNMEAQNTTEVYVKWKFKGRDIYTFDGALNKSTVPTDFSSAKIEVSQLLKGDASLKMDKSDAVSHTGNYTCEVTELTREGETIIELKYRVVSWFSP

B1: 小鼠抗人CD47单克隆抗体1H10 (antibody, V domains shown)
VH: EVQLQQSGAELVRSGASVTLSCTASGFKIKDYYMNWVKQRPEQGLEWIGWIGPENGDTENGPKFQDKATMTANTSSNTAFLQLSSLTPEDTAFYYCNAGGRGGFPYWGQGTQVTVST
VL: DILLTQTPLSLPVSLGDQASFSCRSSQDIVHINGKTYLEWYLQKPGQSPKLLIYRVSNRFSGVPDRFSGSGSGTDFTLKISRVEAEDLGVYYCFQGSHVPRTFGGGTKLEIK
notes: also called 本发明的抗体1H10; 本发明的单克隆抗体1H10
Take B1: the binding result in test [1] and in test [2] was “binds” each time.

These data come from patent CN115746133A (BOAOXIN BIOTECHNOLOGY NANJING CO LTD, dated 2023).
